B1: 抗体B089 (antibody, V domains shown)
VH: EVQLLESGGGVVQPGRSLRLSCAASGFTFSSYAMHWVRQAPGKGLEWVAVISYDGSNKYYADSVKGRFTISRDNSKNTLYLQMNSLRAEDTAVYYCARFSGAYSYGYGVYWGQGTPVTVSS
VL: DIQLTQSPSFLSASVGDNVTITCRASQGIASRLAWYQQKPGKAPNLLISSSSTLQSGVPSRFTGSGYGTEFTLTMNTLQPEDSATYYCQQLNSYPLTFGGGTKVEIKR
B2: 抗体B019 (antibody, V domains shown)
VH: QVQLLESGGTLVQPGGSLRLSCAASGFSFRTHDMNWVRQAPGKGLEWVSHISSTGSTIYYADSVKGRFTISRDNAKNSLYLQMNSLRADDTAVYYCARDRFTIFGVGPPFYYMDVWGQGTLVTVSS
VL: DIQLTQSPSSLSASVGDRVTITCRASQGISSYLAWYQQKPGKAPKLLIYAASTLQSGVPSRFSGSGSGTDFTLTISSLQPEDFATYYCQQSYSTPRTFGQGTKVEIKR
B3: 抗体B026 (antibody, V domains shown)
VH: EVQLLESGGGVVQPGNSLRLSCAASGFTFSSYNMNWVRQAPGKGLEWVSSISSRSSYIYYADSVKGRFTISRDNAKNTLYLQMSSLRSEDTAVYFCVRRNGAFDIWGQGTMVTVSS
VL: DIQMTQSPSSLSASVGDRVTITCRASQSITTYLNWYQQKPGKAPKLLIYAASSLQSGVPSRFSGSGSGTDFTLTISSLQPEDFATYYCQQSYGIPRTFGQGTKVEIKR
B4: 抗体B010 (antibody, V domains shown)
VH: QVQLLDSGGGLVQPGGSLRLSCAASGFTFSSYAMHWVRQAPGKGLEWVAVISYDGSNKYYADSVKGRFTISRDNSKNTLYLQMNSLRAEDTAVYYCAQGWFDYWGQGTTVTVSS
VL: NIQMTQSPSTLSASVGDRVTITCRASQSIGPWLAWYQQKPGKAPKLLIYKASSLESGVPSRFSGSGSGTEFTLTISSLQPEDFATYHCQQYKSYPYSFGQGTKVDIKR
B5: 抗体B161 (antibody, V domains shown)
VH: QVQLLESGGGLVKPGGSLRLSCAASGFTFSSYSMSWVRQAPGKGLEWVSSISGGSDYIYYADPVRGRFTISRDNAKNSVYLQMNSLRAEDTAVYYCGRGITGIFNWGQGTPVTVSS
VL: DIQLTQSPSSLSASVGDRVTITCRASQSINNYLNWYQQKPGKAPKVLIYAASSLPRGVPSRFSGSGSGTDFTLTISSLQPEDFASYYCQQSYTSPLTFGQGTKVEVKR
B6: 抗体B083 (antibody, V domains shown)
VH: EVQLLESGGGVVRPGGSLRLSCAASGFTFGDYGMSWVRQAPGKGLEWVSGINWNGGSTGYADSVKGRFTISRDNAKNSLYLQMNSLRVEDSGVYYCARYGRVPDNWGQGTMVTVSS
VL: NIQLTQSPSSLSASVGDRVTITCRASQGVNNWLAWYQQKPGKAPKLLIYAASTLESGVPSRFSGSGSATDFTLTINGLQPEDFATYYCQQAKRFPWTFGQGTKVEIKR

This note sets out measurements from CN117683122A (SHENZHEN BAY LABORATORY; UNIV TSINGHUA, dated 2024).

The target in this assay is 重组猴痘病毒表面蛋白B6R-His (monkeypox virus, UniProt P0DTN2 20-279).
Regarding B1, the Kd was less than 1 nM.
The same measure for B2: less than 1 nM.
Under B3 stands less than 1 nM; under B4, less than 1 nM.
The same measure for B5: less than 1 nM; for B6: less than 1 nM.

The term Kd denotes the equilibrium constant for the complex coming apart. High values mean lower affinity, low ones higher affinity.
